We go through two proteins from patent US20250073350A1 (BROAD INSTITUTE, published 2025).

This data set deals with the molecule itself. Kind of data set: self-association; size exclusion and electron microscopy of protein produced in E. coli.

B1: MmPNMA5, bacterially produced (other, mouse, UniProt Q5DTT8 1-618, looked up)
chain: MAVALLDDWCKGMDLDPKKAVLIVGIPVQYTEAAINDALKEGLPPLCAYKVIGRMFRREDEAKAVLIELPEVVDYTMMPTHIPAEGGAWEVVVKPRSPDDEFMNKLIYFLRDEGRRIVDVAKALGFSTVPTGKIELKNLDQDKPKGLKSLCNNSTCYKKLKVFSGSPFPGPGEESFETWLEEVTELMQLWQVSEREKKQCLLESLRGSALSIMQALWTSNDSLTVEQCLKALKHIFGNKEDSKVLQFRFLQSSQKPAEKVSDYLLRLEPLLQKAVQQSPLSAHSADSIRLKHVLSQVSMTTGLRGKLSLLDQQGCPPTFLELMKLTRDEEEWESTVVVEEQEQVRRDSSACEAANEVVTQAEDSREVSTQTTGEEMTSVKRRRLLWRHSAGEEGQRKESGFWAESEPDEQKPYVRAQESGNERGAWAVSHPNPKEIEAQDSQEFLPVAGNRDTLTKSWGSPDKGTGDMSVAEGQQGQGKAPNFLLARNDPNKQEQIPHSSVTTKWQDRGECQRLKWGASMITRPQGNPDRSWDTSGSQDGEDGCSELRMPTGTEAAQGVEEPATGLSWAEDTSAWEQARLGRETVPRRGGRRIQPVFRIIYTALGEPHEGSTLESFRE
notes: also called paraneoplastic antigen-like protein 5
For B1, the binding result is recorded as “binds”.

B2: MmMOAP1, bacterially produced (other, mouse, UniProt Q9ERH6 1-352, looked up)
chain: MTLRLLEDWCRGMDMNPRKALLVAGIPPTCGVADIEEALQAGLAPLGEHRLLGRMFRRDENKNVALIGLTVETGSALVPKEIPAKGGVWRVIFKPPDTDSDFLCRLNEFLKGEGMTMGELTRVLGNRNDPLGLDPGIMIPEIRAPMLAQALNEALKPTLQYLRYKKLSVFSGRDPPGPGEEEFESWMFHTSQVMKTWQVSDVEKRRRLIESLRGPAFEIIRVLKINNPFITVAECLKTLETIFGIIDNPRALQVKYLTTYQKTDEKLSAYVLRLEPLLQKLVQKGAIEKEVVNQARLDQVIAGAVHKSVRRELGLPEGSPAPGLLQLLTLIKDKEAEEEEVLLQAELEGYCT
notes: also called modulator of apoptosis 1
Regarding B2, the binding result was “binds”.
